The series concerns the target T1, His-MBP-PABPN1 WT (human, UniProt Q86U42 1-306).
T1 sequence: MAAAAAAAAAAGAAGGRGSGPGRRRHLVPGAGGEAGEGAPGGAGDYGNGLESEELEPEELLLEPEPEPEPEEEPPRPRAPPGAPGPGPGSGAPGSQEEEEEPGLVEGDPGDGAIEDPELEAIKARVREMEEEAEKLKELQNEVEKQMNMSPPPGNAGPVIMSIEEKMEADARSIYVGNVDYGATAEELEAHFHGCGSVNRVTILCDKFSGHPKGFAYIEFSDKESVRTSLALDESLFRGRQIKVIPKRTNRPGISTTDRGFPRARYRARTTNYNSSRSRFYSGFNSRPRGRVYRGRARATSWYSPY
The series is described as follows: filter binding; 50 mM Tris-HCl pH 8.0, 100 mM KCl, 5 mM MgCl2, 2 mM EDTA, 10% glycerol, 0.2 mg/ml BSA, 0.01% NP-40, 0.5 mM DTT, 2 U/ul RNase OUT; 500 pM RNA, protein 62.5 nM-4. The following applies: protein: recombinant; tags: N-terminal His-MBP (uncleaved); label: 5'-32P; single strand.

As to AAAAAAAAAAAAAAAAAAAAAAAAAAAAAA (ssRNA) [poly(A)30], the binding result is on record as “binds”.

For the origin of these results see paper PMC11381358, “Phosphorylation of the nuclear poly(A) binding protein (PABPN1) during mitosis protects mRNA from hyperadenylation and maintains transcriptome dynamics”.
